Results reported in PMC3534135, “Interaction of the Transactivation Domain of B-Myb with the TAZ2 Domain of the Coactivator p300: Molecular Features and Properties of the Complex” (PLoS ONE, 2012).

Biological target: T1, B-Myb transactivation domain (residues 275-376) (mouse, UniProt P48972 275-376)
T1 construct: also called B-Myb TAD
T1 sequence (looked up): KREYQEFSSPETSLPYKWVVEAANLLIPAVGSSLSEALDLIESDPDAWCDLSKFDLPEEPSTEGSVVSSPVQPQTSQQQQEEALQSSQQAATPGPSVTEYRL
Assay: NMR titration; 15N/1H HSQC of 15N-labelled p300 TAZ2 (100 µM) without and with 100 or 200 µM unlabelled B-Myb TAD; minimal shift approach; 25°C, 600 MHz; 20 mM Bis-Tris, 100 mM NaCl, 5 mM DTT, 20 µM ZnSO4, pH 5.8; Kd estimated from intermediate exchange
Conditions: both partners purified

B1: TAZ2 domain of the coactivator p300 (domain or fragment, human, UniProt Q09472 1726-1812, looked up)
chain: SPGDSRRLSIQRCIQSLVHACQCRNANCSLPSCQKMKRVVQHTKGCKRKTNGGCPICKQLIALCCYHAKHCQENKCPVPFCLNIKQK
notes: human p300, TAZ2 domain, residues 1726-1812, corresponding to murine CBP TAZ2; cloned into the NdeI and BamHI sites of pET23a; No tag is stated; also called p300 TAZ2
  Kd: 1 to 10 µM
